Measurements reported in US7291492B2, “Histone deacetylase 9” (The Institute of Cancer Research, priority 2001, dated 2007).

Test system: histone H4 peptide
Assay: in-vitro histone deacetylase assay with anti-FLAG immunoprecipitated HDAC, [3H]acetyl-labelled histone H4 peptide
Type: biochemical
Conditions: FLAG-tagged HDAC from 293T cells, FIG. 5A
Method: A. HDAC9 deacetylates histone H4 peptide. 293T cells were transfected with FLAG-tagged HDAC. Whole cell lysates were produced and the HDACs precipitated with anti-FLAG agarose. The beads were assayed for their ability to deacetylate a [^3H]acetyl-labelled peptide corresponding to the N-Terminus of histone H4. Free acetate was extracted and measured by scintillation counting.
Higher activities of HDAC9 have been detected towards peptide substrates derived from histone H3 than from histone H4 (FIGS. 7A and B).

B1: HDAC9: wild-type histone deacetylase 9, a 1069 amino acid polypeptide, class II histone deacetylase (protein)
chain: MHSMISSVDVKSEVPVGLEPISPLDLRTDLRMMMPVVDPVVREKQLQQELLLIQQQQQIQKQLLIAEFQKQHENLTRQHQAQLQEHIKLQQELLAIKQQQELLEKEQKLEQQRQEQEVERHRREQQLPPLRGKDRGRERAVASTEVKQKLQEFLLSKSATKDTPTNGKNHSVSRHPKLWYTAAHHTSLDQSSPPLSGTSPSYKYTLPGAQDAKDDFPLRKTASEPNLKVRSRLKQKVAERRSSPLLRRKDGNVVTSFKKRMFEVTESSVSSSSPGSGPSSPNNGPTGSVTENETSVLPPTPHAEQMVSQQRILIHEDSMNLLSLYTSPSLPNITLGLPAVPSQLNASNSLKEKQKCETQTLRQGVPLPGQYGGSIPASSSHPHVTLEGKPPNSSHQALLQHLLLKEQMRQQKLLVAGGVPLHPQSPLATKERISPGIRGTHKLPRHRPLNRTQSAPLPQSTLAQLVIQQQHQQFLEKQKQYQQQIHMNKLLSKSIEQLKQPGSHLEEAEEELQGDQAMQEDRAPSSGNSTRSDSSACVDDTLGQVGAVKVKEEPVDSDEDAQIQEMESGEQAAFMQQPFLEPTHTRALSVRQAPLAAVGMDGLEKHRLVSRTHSSPAASVLPHPAMDRPLQPGSATGIAYDPLMLKHQCVCGNSTTHPEHAGRIQSIWSRLQETGLLNKCERIQGRKASLEEIQLVHSEHHSLLYGTNPLDGQKLDPRILLGDDSQKFFSSLPCGGLGVDSDTIWNELRSSGAARMAVGCVIELASKVASGELKNGFAVVRPPGHHAEESTAMGFCFFNSVAITAKYLRDQLNISKILIVDLDVHHGNGTQQAFYADPSILYISLHRYDEGNFFPGSGAPNEVGTGLGEGYNINIAWTGGLDPPMGDVEYLEAFRTIVKPVAKEFDPDMVLVSAGFDALEGHTPPLGGYKVTAKCFGHLTKQLMTLADGRVVLALEGGHDLTAICDASEACVNALLGNELEPLAEDILHQSPNMNAVISLQKIIEIQSKYWKSVRMVAVPRGCALAGAQLQEETETVSALASLTVDVEQPFAQEDSRTAGEPMEEEPAL
modifications: left off: a dimerising Fc or GST
notes: wild-type histone deacetylase 9, a 1069 amino acid polypeptide, class II histone deacetylase
Question: For B1, which “histone deacetylase activity relative to HDAC1” value is on record?
Answer: about 25%

Question: And the “histone deacetylase activity relative to HDACs 4 and 5” value?
Answer: ~50%
